According to IntAct's records for PubMed 21134644:

Key:
itb1_human ITGB1 = itb1_human ITGB1 (UniProt P05556)
itb1_human ITGB1, sequence (P05556 whole entry): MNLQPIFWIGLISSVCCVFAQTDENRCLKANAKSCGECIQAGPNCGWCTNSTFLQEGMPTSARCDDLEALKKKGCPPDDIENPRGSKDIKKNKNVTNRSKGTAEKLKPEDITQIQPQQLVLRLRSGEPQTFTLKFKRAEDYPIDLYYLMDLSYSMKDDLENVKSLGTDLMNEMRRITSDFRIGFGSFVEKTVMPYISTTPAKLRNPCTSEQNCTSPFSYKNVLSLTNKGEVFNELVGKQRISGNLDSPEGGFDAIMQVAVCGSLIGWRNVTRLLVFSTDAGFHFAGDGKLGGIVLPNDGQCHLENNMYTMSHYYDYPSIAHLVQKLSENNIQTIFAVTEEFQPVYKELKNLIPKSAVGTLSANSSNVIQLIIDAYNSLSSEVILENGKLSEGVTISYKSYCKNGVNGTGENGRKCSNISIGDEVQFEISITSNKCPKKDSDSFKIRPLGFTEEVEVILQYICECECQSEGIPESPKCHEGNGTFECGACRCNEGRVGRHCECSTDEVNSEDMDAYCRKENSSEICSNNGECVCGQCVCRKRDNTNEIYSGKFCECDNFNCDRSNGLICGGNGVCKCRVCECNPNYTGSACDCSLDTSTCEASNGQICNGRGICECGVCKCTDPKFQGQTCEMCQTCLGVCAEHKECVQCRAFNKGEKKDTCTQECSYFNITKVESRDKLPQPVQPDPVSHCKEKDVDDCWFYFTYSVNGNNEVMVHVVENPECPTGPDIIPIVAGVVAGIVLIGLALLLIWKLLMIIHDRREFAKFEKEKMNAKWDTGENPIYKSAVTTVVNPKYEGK

ITGB1, P05556-5, sequence (P05556 other isoform, or with tags, fused parts or gaps): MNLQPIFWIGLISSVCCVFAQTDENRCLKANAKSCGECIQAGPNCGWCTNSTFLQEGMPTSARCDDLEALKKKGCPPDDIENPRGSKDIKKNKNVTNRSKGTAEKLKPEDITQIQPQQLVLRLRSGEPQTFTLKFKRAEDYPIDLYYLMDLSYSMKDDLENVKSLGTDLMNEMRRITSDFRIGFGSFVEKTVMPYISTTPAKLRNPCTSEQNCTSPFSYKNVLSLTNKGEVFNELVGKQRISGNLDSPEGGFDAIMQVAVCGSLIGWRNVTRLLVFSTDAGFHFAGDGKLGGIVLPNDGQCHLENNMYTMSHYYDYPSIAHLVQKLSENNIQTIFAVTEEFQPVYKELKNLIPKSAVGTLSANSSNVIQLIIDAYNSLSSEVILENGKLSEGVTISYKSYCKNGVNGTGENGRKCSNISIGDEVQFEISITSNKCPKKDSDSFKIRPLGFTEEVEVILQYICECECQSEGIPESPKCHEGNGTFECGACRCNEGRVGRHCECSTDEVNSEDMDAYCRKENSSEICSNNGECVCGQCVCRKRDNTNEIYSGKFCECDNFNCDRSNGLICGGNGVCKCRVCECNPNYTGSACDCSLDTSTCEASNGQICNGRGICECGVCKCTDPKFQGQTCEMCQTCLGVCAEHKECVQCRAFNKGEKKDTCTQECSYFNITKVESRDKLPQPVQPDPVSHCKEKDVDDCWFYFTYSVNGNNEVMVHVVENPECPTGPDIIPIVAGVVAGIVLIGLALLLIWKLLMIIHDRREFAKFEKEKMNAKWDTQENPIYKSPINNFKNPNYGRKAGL

Talin-2 (Mus musculus), Q71LX4 Y376A
effect of a mutation on the interaction (ITGB1, P05556-5): decreasing interaction | effect of a mutation on the interaction (itb1_human ITGB1): disrupting interaction
